In patent publication US20230212554A1 (published 2023):

T1: NPB1 (influenza B virus B/Houston/B720/2004, UniProt O36433 1-548)
T1 chain: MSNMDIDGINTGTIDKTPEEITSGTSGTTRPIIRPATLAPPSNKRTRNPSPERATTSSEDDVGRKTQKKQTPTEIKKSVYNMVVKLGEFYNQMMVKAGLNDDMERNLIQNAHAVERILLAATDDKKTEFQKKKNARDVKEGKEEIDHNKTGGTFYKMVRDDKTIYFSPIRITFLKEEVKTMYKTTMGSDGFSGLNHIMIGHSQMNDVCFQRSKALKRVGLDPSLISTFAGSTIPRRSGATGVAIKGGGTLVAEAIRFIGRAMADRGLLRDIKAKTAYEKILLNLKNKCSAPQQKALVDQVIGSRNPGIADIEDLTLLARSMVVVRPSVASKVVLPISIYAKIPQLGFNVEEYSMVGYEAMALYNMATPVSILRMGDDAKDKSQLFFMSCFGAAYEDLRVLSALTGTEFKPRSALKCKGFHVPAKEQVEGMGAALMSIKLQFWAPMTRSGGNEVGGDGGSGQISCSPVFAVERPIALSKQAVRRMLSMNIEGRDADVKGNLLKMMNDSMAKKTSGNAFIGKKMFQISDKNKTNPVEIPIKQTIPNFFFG

T2: NPA1 (influenza A virus A/Taiwan/1/72 (H3N2), UniProt P16982 1-489)
T2 chain: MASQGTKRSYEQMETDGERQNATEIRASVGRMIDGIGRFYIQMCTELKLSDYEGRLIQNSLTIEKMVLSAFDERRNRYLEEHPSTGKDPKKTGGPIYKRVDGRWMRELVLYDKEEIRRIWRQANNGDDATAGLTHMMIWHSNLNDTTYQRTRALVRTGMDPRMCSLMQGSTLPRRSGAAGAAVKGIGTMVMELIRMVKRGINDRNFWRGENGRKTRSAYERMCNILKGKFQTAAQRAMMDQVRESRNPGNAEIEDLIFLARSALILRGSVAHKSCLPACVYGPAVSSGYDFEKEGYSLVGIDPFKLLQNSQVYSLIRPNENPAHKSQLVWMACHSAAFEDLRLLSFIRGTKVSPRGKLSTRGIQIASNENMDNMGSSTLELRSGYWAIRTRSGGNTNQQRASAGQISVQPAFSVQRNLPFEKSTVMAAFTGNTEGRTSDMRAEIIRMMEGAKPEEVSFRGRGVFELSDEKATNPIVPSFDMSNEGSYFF


How the values were obtained:
Assay in all cases: ELISA on recombinant NP
NPB1 = target: T1, NPB1
NPA5 = NPA5 (influenza A virus A/Anhui/1/2005 …, UniProt Q6DPE5 1-489)
NPA2 = NPA2 (influenza A virus A/WSN/1933(H1N1), UniProt A4U6V6 1-489)
NPA1 = target: T2, NPA1

Binder	EC50 (NPB1) [nM]	EC50 (NPA2) [nM]	also measured
NP2 (antibody, V domains shown) VH: EVQLVESGGGLVQPGGSLRLSCAASGFTIGGGGIHWVRQAPGKGLEWVAGIWPYWGYTFYADSVKGRFTISADTSKNTAYLQMNSLRAEDTAVYYCARFWHGNLDVMDYWGQGTLVTVSS VL: DIQMTQSPSSLSASVGDRVTITCRASQDVYGYVAWYQQKPGKAPKLLIYGAAGLYSGVPSRFSGSGSGTDFTLTISSLQPEDFATYYCQQYSNFPLTFGQGTKVEIKR	1.37		
NP9 (antibody, V domains shown) VH: EVQLVESGGGLVQPGGSLRLSCAASGFTINNGWIHWVRQAPGKGLEWVAGIGPYWGFTSYADSVKGRFMISADTSKNTAYLQMNSLRAEDTAVYYCARFDSDHDHHYSYYYYYDNGYMDYWGQGTLVTVSS VL: DIQMTQSPSSLSASVGDRVTITCRASQDVWFSVAWYQQKPGKAPKLLIYGTTSLYSGVPSRFSGSGSGTDFTLTISSLQPEDFATYYCQQYFNYPLTFGQGTKVEIKR			EC50 (NPA5): 1.12 nM
NP11 (antibody, V domains shown) VH: EVQLVESGGGLVQPGGSLRLSCAASGFTIDSYGIHWVRQAPGKGLEWVAWIGPSGGSTFYADSVKGRFTISADTSKNTAYLQMNSLRAEDTAVYYCARGYFWFFDYWGQGTLVTVSS VL: DIQMTQSPSSLSASVGDRVTITCRASQDVSSWVAWYQQKPGKAPKLLISWSGYLYSGVPSRFSGSGSGTDFTLTISSLQPEDFATYYCQQGFNYPLTFGQGTKVEIKR		0.27	EC50 (NPA5): 0.06 nM
NP12 (antibody, V domains shown) VH: EVQLVESGGGLVQPGGSLRLSCAASGFTIDNGYIHWVRQAPGKGLEWVASIWPSWGSTYYADSVKGRFTISADTSKNTAYLQMNSLRAEDTAVYYCARGFYYYGDYWGQGTLVTVSS VL: DIQMTQSPSSLSASVGDRVTITCRASQDVGGNVAWYQQKPGKAPKLLISSTAGLYSGVPSRFSGSGSGTDFTLTISSLQPEDFATYYCQQYYDFPLTFGQGTKVEIKR			EC50 (NPA5): 9.07 nM
NP3 (antibody, V domains shown) VH: EVQLVESGGGLVQPGGSLRLSCAASGFTISNYGIHWVRQAPGKGLEWVAGIWPFGGFTSYADSVKGRFTISADTSKNTAYLQMNSLRAEDTAVYYCARFHWNDHGYMDYWGQGTLVTVSS VL: DIQMTQSPSSLSASVGDRVTITCRASQDVGWYVAWYQQKPGKAPKLLIYSTTGLYSGVPSRFSGSGSGTDFTLTISSLQPEDFATYYCQQYYNYPITFGQGTKVEIKR			EC50 (NPA1): 0.09 nM
NP14 (antibody, V domains shown) VH: EVQLVESGGGLVQPGGSLRLSCAASGFTIDNGGIHWVRQAPGKGLEWVASIWPSWGSTSYADSVKGRFTISADTSKNTAYLQMNSLRAEDTAVYYCARFNFGVFGVMDYWGQGTLVTVSS VL: DIQMTQSPSSLSASVGDRVTITCRASQDVDNDVAWYQQKPGKAPKLLIYGPRGLYSGVPSRFSGSGSGTDFTLTISSLQPEDFATYYCQQYSSWPLTFGQGTKVEIKR		0.08	EC50 (NPA1): 0.19 nM; EC50 (NPA5): 1.7 nM
NP4 (antibody, V domains shown) VH: EVQLVESGGGLVQPGGSLRLSCAASGFTISNSSIHWVRQAPGKGLEWVAGIGPSGGYTFYADSVKGRFTISADTSKNTAYLQMNSLRAEDTAVYYCARFHSHNSYYSYSHYGYMDYWGQGTLVTVSS VL: DIQMTQSPSSLSASVGDRVTITCRASQDVGWGVAWYQQKPGKAPKLLISGPSSLYSGVPSRFSGSGSGTDFTLTISSLQPEDFATYYCQQYFNYPITFGQGTKVEIKR			EC50 (NPA1): 0.19 nM; EC50 (NPA5): 0.37 nM
NP19 (antibody, V domains shown) VH: EVQLVESGGGLVQPGGSLRLSCAASGFTISSWGIHWVRQAPGKGLEWVAGIGPFWGYTSYADSVKGRFTISADTSKNTAYLQMNSLRAEDTAVYYCARFGVDNYGYMDYWGQGTLVTVSS VL: DIQMTQSPSSLSASVGDRVTITCRASQDVSGWVAWYQQKPGKAPKLLISWSTGLYSGVPSRFSGSGSGTDFTLTISSLQPEDFATYYCQQYFNFPVTFGQGTKVEIKR			EC50 (NPA1): 0.11 nM
NP20 (antibody, V domains shown) VH: EVQLVESGGGLVQPGGSLRLSCAASGFTINGYSIHWVRQAPGKGLEWVASIGPYGGFTYYADSVKGRFTISADTSKNTAYLQMNSLRAEDTAVYYCAGFGFYYWGQGTLVTVSS VL: DIQMTQSPSSLSASVGDRVTITCRASQDVGYGVAWYQQKPGKAPKLLISGASGLYSGVPSRFSGSGSGTDFTLTISSLQPEDFATYYCQQYSSFPLTFGQGTKVEIKR	0.04		
NP21 (antibody, V domains shown) VH: EVQLVESGGGLVQPGGSLRLSCAASGFTINGYGIHWVRQAPGKGLEWVAGIWPYGGSTFYADSVKGRFTISADTSKNTAYLQMNSLRAEDTAVYYCARFYNNHGGIMDYWGQGTLVTVSS VL: DIQMTQSPSSLSASVGDRVTITCRASQDVYFYVAWYQQKPGKAPKLLIYGSRWLYSGVPSRFSGSGSGTDFTLTISSLQPEDFATYYCQQYSNFPVTFGQGTKVEIKR		28.6	EC50 (NPA1): 0.12 nM
NP22 (antibody, V domains shown) VH: EVQLVESGGGLVQPGGSLRLSCAASGFTISDWSIHWVRQAPGKGLEWVAGIWPYWGSTSYADSVKGRFTISADTSKNTAYLQMNSLRAEDTAVYYCARGFYSWFDYWGQGTLVTVSS VL: DIQMTQSPSSLSASVGDRVTITCRASQDVFSWVAWYQQKPGKAPKLLISSASSLYSGVPSRFSGSGSGTDFTLTISSLQPEDFATYYCQQSWDYPITFGQGTKVEIKR	0.27		
NP23 (antibody, V domains shown) VH: EVQLVESGGGLVQPGGSLRLSCAASGFTISNYFIHWVRQAPGKGLEWVASIGPFGGFTSYADSVKGRFTISADTSKNTAYLQMNSLRAEDTAVYYCAGYGFHYWGQGTLVTVSS VL: DIQMTQSPSSLSASVGDRVTITCRASQDVDDGVAWYQQKPGKAPKLLISGARWLYSGVPSRFSGSGSGTDFTLTISSLQPEDFATYYCQQYYNFPLTFGQGTKVEIKR	0.06		
NP24 (antibody, V domains shown) VH: EVQLVESGGGLVQPGGSLRLSCAASGFTIDDWYIHWVRQAPGKGLEWVAGIGPYGGFTYYADSVKGRFTISADTSKNTAYLQMNSLRAEDTAVYYCARGYYGSFDYWGQGTLVTVSS VL: DIQMTQSPSSLSASVGDRVTITCRASQDVGSSVAWYQQKPGKAPKLLIFYTSSLYSGVPSRFSGSGSGTDFTLTISSLQPEDFATYYCQQGWDSPVTFGQGTKVEIKR	0.05		
NP25 (antibody, V domains shown) VH: EVQLVESGGGLVQPGGSLRLSCAASGFTIGGGFIHWVRQAPGKGLEWVASIWPYWGFTYYADSVKGRFTISADTSKNTAYLQMNSLRAEDTAVYYCARGSYGYSDYWGQGTLVTVSS VL: DIQMTQSPSSLSASVGDRVTITCRAGQDVSSGVAWYQQKPGKAPKLLISWTSFLYSGVPSRFSGSGSGTDFTLTISSLQPEDFATYYCQQYYDYPITFGQGTKVEIKR	0.1		
NP5 (antibody, V domains shown) VH: EVQLVESGGGLVQPGGSLRLSCAASGFTISNGSIHWVRQAPGKGLEWVAGIWPSGGSTSYADSVKGRFTISADTINNSAYLQMNSLRAEDTAVYYCARWNYWGQGTLVTVSS VL: DIQMTQSPSSLSASVGDRVTITCRASQDVGWSVAWYQQKPGKAPKLLIYGSRWLYSGVPSRFSGSGSGTDFTLTISSLQPEDFATYYCQQGYNGPLTFGQGTKVEIKR		0.13	
NP7 (antibody, V domains shown) VH: EVQLVESGGGLVQPGGSLRLSCAASGFTISNGGIHWVRQAPGKGLEWVAGIGPYGGFTSYADSVKGRFTISADTSKNTAYLQMNSLRAEDTAVYYCARFYSNYYGYHGVMDYWGQGTLVTVSS VL: DIQMTQSPSSLSASVGDRVTITCRASQDVFGWVAWYQQKPGKAPKLLISYSASLYSGVPSRFSGSGSGTDFTLTISSLQPEDFATYYCQQYFNYPLTFGQGTKVEIKR		0.79	
NP8 (antibody, V domains shown) VH: EVQLVESGGGLVQPGGSLRLSCAASGFTINSFGIHWVRQAPGKGLEWVAGIGPFGGSTFYADSVKGRFTISADTSKNTAYLQMNSLRAEDTAVYYCARGFYWFDYWGQGTLVTVSS VL: DIQMTQSPSSLSASVGDRVTITCRASQDVDDSVAWYQQKPGKAPKLLIYWTRYLYSGVPSRFSGSGSGTDFTLTISSLQPEDFATYYCQQGYNYPLTFGQGTKVEIKR		2.14	
